According to patent publication US20160058848A1:
Numbering of substitutions follows the chain as printed.

What was measured:
[1] = molecular target: T1, human corin variant Q568P, Q9Y5Q5
T1 chain: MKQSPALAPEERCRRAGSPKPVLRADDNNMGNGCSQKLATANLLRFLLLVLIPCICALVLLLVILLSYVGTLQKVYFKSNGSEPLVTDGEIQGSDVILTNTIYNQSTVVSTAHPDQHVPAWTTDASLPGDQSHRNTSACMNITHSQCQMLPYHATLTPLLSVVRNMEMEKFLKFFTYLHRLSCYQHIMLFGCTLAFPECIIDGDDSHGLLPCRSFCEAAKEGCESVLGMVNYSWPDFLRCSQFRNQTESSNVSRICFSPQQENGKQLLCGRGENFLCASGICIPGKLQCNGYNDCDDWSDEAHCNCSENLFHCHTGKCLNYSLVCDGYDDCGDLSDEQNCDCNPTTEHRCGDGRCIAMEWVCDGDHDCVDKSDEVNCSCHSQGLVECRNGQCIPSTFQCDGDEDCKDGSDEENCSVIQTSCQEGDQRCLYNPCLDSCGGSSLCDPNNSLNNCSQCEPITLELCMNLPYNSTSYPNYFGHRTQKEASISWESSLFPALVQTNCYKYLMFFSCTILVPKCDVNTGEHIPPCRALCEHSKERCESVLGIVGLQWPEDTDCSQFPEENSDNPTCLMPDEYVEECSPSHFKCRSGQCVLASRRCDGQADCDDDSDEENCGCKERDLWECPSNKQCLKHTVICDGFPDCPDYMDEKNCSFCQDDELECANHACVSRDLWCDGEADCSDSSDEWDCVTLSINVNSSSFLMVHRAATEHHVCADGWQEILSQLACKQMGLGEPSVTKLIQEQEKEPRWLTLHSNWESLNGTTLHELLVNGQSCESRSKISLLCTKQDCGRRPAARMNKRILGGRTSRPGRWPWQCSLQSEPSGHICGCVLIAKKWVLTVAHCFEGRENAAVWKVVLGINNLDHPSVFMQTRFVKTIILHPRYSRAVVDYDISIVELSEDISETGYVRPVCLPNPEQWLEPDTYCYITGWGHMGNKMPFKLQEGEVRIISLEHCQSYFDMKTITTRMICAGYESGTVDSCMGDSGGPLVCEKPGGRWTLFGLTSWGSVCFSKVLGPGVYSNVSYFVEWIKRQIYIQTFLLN

[2] = molecular target: T2, human corin variant T555I, Q9Y5Q5
T2 chain: T1 chain with T555I, P568Q

[3] = molecular target: T3, human corin variant T555I/Q568P, Q9Y5Q5
T3 chain: T1 chain with T555I

B1: recombinant human proprotein convertase subtilisin/kexin-6 (PCSK6) with a C-terminal flag tag (protein)
chain: QVRSDPQALYFNDPIWSNMWYLHCGDKNSRCRSEMNVQAAWKRGYTGKNVVVTILDDGIERNHPDLAPNYDSYASYDVNGNDYDPSPRYDASNENKHGTRCAGEVAASANNSYCIVGIAYNAKIGGIRMLDGDVTDVVEAKSLGIRPNYIDIYSASWGPDDDGKTVDGPGRLAKQAFEYGIKKGRQGLGSIFVWASGNGGREGDYCSCDGYTNSIYTISVSSATENGYKPWYLEECASTLATTYSSGAFYERKIVTTDLRQRCTDGHTGTSVSAPMVAGIIALALEANSQLTWRDVQHLLVKTSRPAHLKASDWKVNGAGHKVSHFYGFGLVDAEALVVEAKKWTAVPSQHMCVAASDKRPRSIPLVQVLRTTALTSACAEHSDQRVVYLEHVVVRTSISHPRRGDLQIYLVSPSGTKSQLLAKRLLDLSNEGFTNWEFMTVHCWGEKAEGQWTLEIQDLPSQVRNPEKQGKLKEWSLILYGTAEHPYHTFSAHQSRSRMLELSAPELEPPKAALSPSQVEVPEDEEDYTAQSTPGSANILQTSVCHPECGDKGCDGPNADQCLNCVHFSLGSVKTSRKCVSVCPLGYFGDTAARRCRRCHKGCETCSSRAATQCLSCRRGFYHHQEMNTCVTLCPAGFYADESQKNCLKCHPSCKKCVDEPEKCTVCKEGFSLARGSCIPDCEPGTYFDSELIRCGECHHTCGTCVGPGREECIHCAKNFHFHDWKCVPACGEGFYPEEMPGLPHKVCRRCDENCLSCAGSSRNCSRCKTGFTQLGTSCITNHTCSNADETFCEMVKSNRLCERKLFIQFCCRTCLLAG
PCSK6-mediated activation cleavage (Western blot, densitometry) [1]: PCSK6-mediated activation cleavage was detected in corin WT and variants T555I or Q568P, but not variant T555I/Q568P | PCSK6-mediated activation cleavage (Western blot, densitometry) [2]: PCSK6-mediated activation cleavage was detected in corin WT and variants T555I or Q568P, but not variant T555I/Q568P | PCSK6-mediated activation cleavage (Western blot, densitometry) [3]: PCSK6-mediated activation cleavage was detected in corin WT and variants T555I or Q568P, but not variant T555I/Q568P
